Measured values reported in paper PMC10421740, “A universal deep-learning model for zinc finger design enables transcription factor reprogramming”.

Experiments:
[1] = target: ZIM3 reprogrammed with array DPH1_151 (synthetic construct, UniProt Q96PE6 1-166); experiment: Zn; HEK293T, RT-qPCR 3 days after transfection
[2] = target: ZIM3 reprogrammed with array DPH1_75 (synthetic construct, UniProt Q96PE6 1-166); experiment: Zn; HEK293T, RT-qPCR 3 days after transfection
[3] = target: KLF6 reprogrammed with array CDKN1C_102 (synthetic construct, UniProt Q99612 1-199); experiment: Zn; HEK293T, RT-qPCR 3 days after transfection
[4] = target: KLF6 reprogrammed with array CDKN1C_224 (synthetic construct, UniProt Q99612 1-199); experiment: Zn; HEK293T, RT-qPCR 3 days after transfection
[5] = target: ZIM3 reprogrammed with array DPH1_51 (synthetic construct, UniProt Q96PE6 1-166); experiment: Zn; HEK293T, RT-qPCR 3 days after transfection
Chain of ZIM3 reprogrammed with array DPH1_51 (Q96PE6 other isoform, or with tags, fused parts or gaps): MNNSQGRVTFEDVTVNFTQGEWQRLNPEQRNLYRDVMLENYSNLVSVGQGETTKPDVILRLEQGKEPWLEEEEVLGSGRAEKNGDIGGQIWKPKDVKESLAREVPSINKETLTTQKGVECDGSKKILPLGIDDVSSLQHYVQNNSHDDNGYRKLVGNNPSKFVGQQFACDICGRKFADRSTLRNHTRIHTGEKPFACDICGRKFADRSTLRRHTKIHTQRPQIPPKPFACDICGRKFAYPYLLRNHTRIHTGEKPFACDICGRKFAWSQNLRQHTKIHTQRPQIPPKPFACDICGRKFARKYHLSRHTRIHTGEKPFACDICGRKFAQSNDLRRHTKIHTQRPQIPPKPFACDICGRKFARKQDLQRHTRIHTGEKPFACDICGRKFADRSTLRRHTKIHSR

[6] = target: ZIM3 reprogrammed with array DPH1_225 (synthetic construct, UniProt Q96PE6 1-166); experiment: Zn; HEK293T, RT-qPCR 3 days after transfection
Chain of ZIM3 reprogrammed with array DPH1_225 (Q96PE6 other isoform, or with tags, fused parts or gaps): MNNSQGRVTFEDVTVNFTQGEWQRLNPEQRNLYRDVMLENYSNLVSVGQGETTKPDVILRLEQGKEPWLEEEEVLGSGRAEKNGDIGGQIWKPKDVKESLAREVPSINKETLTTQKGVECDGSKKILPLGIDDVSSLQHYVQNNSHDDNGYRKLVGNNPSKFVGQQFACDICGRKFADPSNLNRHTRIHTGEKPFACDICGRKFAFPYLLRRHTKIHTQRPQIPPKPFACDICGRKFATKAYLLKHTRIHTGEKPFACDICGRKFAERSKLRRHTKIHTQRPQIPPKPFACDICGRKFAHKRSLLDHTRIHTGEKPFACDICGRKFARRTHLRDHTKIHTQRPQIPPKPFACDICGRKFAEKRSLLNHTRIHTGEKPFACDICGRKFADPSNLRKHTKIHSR

[7] = target: ZIM3 reprogrammed with array DPH1_201 (synthetic construct, UniProt Q96PE6 1-166); experiment: Zn; HEK293T, RT-qPCR 3 days after transfection
Chain of ZIM3 reprogrammed with array DPH1_201 (Q96PE6 other isoform, or with tags, fused parts or gaps): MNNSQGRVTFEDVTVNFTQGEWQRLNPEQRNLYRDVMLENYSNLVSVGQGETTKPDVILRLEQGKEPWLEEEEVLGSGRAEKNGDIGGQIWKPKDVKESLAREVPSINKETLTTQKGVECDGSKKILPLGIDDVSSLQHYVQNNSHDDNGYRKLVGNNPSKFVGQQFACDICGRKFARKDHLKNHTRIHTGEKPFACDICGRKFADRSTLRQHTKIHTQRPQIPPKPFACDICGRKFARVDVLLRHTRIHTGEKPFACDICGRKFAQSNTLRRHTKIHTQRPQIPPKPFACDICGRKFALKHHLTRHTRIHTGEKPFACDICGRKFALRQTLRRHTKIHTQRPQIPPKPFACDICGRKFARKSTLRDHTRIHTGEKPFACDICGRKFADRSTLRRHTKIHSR

[8] = target: ZFN pair 1BC_design + 1ED_design (synthetic construct, UniProt P14870;P14870 384-579;384-579); experiment: Zn; U2OS eGFP disruption, 3 days after nucleofection; conditions: tags: N-terminal 3xFLAG and SV40 NLS (kept in the assay, left out here); copies: 1;1
[9] = target: ZFN pair 1BC_selected + 1ED_selected (synthetic construct, UniProt P14870;P14870 384-579;384-579); experiment: as above; conditions: tags: N-terminal 3xFLAG and SV40 NLS (kept in the assay, left out here); copies: 1;1
[10] = target: ZIM3 reprogrammed with array DPH1_126 (synthetic construct, UniProt Q96PE6 1-166); experiment: Zn; HEK293T, RT-qPCR 3 days after transfection
Chain of ZIM3 reprogrammed with array DPH1_126 (Q96PE6 other isoform, or with tags, fused parts or gaps): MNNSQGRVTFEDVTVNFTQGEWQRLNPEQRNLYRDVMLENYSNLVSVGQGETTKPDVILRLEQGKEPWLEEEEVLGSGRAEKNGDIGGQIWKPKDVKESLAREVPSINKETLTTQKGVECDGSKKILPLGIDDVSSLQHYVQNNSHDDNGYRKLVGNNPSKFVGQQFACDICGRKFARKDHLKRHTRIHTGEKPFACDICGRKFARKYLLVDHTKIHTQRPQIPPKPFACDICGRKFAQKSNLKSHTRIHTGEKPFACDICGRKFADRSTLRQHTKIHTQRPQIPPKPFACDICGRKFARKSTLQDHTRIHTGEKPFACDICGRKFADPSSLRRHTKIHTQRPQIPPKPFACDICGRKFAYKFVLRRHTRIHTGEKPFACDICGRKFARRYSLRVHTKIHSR

[11] = target: KLF6 reprogrammed with array CDKN1C_125 (synthetic construct, UniProt Q99612 1-199); experiment: Zn; HEK293T, RT-qPCR 3 days after transfection
[12] = target: KLF6 reprogrammed with array CDKN1C_125 F1-6 (synthetic construct, UniProt Q99612 1-199); experiment: Zn; HEK293T, RT-qPCR 3 days after transfection
[13] = target: T1, KLF6 reprogrammed with array CDKN1C_76 (synthetic construct, UniProt Q99612 1-199); experiment: Zn; HEK293T, RT-qPCR 3 days after transfection
T1 chain: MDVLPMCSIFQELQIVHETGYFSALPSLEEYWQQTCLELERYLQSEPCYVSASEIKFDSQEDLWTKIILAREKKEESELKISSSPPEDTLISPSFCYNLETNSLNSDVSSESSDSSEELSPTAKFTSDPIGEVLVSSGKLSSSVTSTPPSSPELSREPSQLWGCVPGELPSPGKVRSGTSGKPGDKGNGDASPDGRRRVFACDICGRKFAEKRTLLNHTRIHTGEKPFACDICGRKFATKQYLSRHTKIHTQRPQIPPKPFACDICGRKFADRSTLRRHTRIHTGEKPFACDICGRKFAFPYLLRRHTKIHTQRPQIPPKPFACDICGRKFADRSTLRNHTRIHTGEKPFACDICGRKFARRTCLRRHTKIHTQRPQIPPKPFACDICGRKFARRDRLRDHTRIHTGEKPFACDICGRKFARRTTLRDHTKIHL

[14] = target: ZIM3 reprogrammed with array DPH1_99 (synthetic construct, UniProt Q96PE6 1-166); experiment: Zn; HEK293T, RT-qPCR 3 days after transfection
Chain of ZIM3 reprogrammed with array DPH1_99 (Q96PE6 other isoform, or with tags, fused parts or gaps): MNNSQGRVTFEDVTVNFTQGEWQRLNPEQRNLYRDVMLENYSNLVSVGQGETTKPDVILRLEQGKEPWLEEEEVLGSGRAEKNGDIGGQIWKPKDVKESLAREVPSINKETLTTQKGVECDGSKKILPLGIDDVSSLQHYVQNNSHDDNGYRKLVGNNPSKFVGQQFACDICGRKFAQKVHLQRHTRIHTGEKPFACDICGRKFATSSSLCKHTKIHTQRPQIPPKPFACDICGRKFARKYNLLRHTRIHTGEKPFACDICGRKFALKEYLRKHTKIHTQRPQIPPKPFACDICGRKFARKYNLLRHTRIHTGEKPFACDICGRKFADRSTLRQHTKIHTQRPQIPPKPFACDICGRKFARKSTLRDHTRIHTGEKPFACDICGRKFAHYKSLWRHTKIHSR

[15] = target: ZIM3 reprogrammed with array Tet3 Rev (synthetic construct, UniProt Q96PE6 1-166); experiment: Zn; HEK293T, 7x tetO CMV eGFP reporter
Chain of ZIM3 reprogrammed with array Tet3 Rev (Q96PE6 other isoform, or with tags, fused parts or gaps): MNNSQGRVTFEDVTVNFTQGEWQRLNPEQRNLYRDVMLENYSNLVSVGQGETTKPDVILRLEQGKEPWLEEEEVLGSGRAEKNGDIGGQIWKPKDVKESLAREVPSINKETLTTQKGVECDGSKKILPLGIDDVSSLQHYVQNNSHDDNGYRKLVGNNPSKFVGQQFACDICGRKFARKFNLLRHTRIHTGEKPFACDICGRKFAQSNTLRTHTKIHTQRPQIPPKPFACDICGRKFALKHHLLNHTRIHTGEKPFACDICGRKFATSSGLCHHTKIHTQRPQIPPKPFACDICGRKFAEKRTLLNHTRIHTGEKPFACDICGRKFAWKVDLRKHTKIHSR

[16] = target: T2, KLF6 reprogrammed with array Tet4 Rev (synthetic construct, UniProt Q99612 1-199); experiment: Zn; HEK293T, 7x tetO minimal CMV GFP reporter
T2 chain: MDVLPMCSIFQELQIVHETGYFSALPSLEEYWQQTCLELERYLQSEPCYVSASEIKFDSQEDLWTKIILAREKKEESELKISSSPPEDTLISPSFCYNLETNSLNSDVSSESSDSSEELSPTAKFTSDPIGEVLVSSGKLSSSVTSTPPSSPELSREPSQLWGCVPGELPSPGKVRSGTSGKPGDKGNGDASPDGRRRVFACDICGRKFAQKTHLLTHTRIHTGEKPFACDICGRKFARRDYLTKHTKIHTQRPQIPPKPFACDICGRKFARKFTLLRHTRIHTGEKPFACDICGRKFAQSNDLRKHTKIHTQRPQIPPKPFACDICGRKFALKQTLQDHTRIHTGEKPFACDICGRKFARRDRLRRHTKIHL

[17] = target: T3, KLF6 reprogrammed with array Tet3 Rev (synthetic construct, UniProt Q99612 1-199); experiment: Zn; HEK293T, 7x tetO minimal CMV GFP reporter
T3 chain: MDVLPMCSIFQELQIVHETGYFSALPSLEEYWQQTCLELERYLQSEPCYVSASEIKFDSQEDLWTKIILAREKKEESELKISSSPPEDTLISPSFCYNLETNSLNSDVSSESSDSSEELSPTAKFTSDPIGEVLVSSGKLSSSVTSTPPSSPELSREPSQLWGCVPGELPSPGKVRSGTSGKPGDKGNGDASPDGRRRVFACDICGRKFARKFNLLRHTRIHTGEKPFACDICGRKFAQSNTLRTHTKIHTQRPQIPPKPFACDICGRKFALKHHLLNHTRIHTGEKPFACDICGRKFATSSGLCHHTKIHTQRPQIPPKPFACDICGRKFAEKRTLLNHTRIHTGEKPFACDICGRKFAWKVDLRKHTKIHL

[18] = target: ZIM3 reprogrammed with array DPH1_24 (synthetic construct, UniProt Q96PE6 1-166); experiment: Zn; HEK293T, RT-qPCR 3 days after transfection
Chain of ZIM3 reprogrammed with array DPH1_24 (Q96PE6 other isoform, or with tags, fused parts or gaps): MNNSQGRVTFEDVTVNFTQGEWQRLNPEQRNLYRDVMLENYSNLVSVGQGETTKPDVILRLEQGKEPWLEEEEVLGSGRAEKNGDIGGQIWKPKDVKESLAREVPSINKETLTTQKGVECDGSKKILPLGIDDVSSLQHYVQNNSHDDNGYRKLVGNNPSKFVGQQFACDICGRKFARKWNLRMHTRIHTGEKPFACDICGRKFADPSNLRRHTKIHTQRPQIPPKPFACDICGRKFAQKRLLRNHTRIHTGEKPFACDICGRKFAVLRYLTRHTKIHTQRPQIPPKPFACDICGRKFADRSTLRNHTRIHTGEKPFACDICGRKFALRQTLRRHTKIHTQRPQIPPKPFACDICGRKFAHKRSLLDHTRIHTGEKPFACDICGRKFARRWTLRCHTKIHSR

[19] = target: KLF6 reprogrammed with array CDKN1C_150 (synthetic construct, UniProt Q99612 1-199); experiment: Zn; HEK293T, RT-qPCR 3 days after transfection
[20] = target: ZFN pair 20BC_designed + 20ED_designed (synthetic construct, UniProt P14870;P14870 384-579;384-579); experiment: Zn; U2OS eGFP disruption, 3 days after nucleofection; conditions: tags: N-terminal 3xFLAG and SV40 NLS (kept in the assay, left out here); copies: 1;1
[21] = target: T4, ZFN pair 20BC_selected + 20ED_selected (synthetic construct, UniProt P14870;P14870 384-579;384-579); experiment: as above; conditions: tags: N-terminal 3xFLAG and SV40 NLS (kept in the assay, left out here); copies: 1;1
T4 chain 1: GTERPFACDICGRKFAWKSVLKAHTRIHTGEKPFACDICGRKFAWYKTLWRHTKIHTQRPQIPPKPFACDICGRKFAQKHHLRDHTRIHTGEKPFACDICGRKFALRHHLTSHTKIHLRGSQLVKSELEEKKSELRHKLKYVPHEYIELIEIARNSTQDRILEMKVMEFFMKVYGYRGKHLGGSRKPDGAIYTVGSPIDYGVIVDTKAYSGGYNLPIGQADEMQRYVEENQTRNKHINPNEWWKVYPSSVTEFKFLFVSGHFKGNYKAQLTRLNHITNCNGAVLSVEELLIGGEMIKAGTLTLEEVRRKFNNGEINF
T4 chain 2: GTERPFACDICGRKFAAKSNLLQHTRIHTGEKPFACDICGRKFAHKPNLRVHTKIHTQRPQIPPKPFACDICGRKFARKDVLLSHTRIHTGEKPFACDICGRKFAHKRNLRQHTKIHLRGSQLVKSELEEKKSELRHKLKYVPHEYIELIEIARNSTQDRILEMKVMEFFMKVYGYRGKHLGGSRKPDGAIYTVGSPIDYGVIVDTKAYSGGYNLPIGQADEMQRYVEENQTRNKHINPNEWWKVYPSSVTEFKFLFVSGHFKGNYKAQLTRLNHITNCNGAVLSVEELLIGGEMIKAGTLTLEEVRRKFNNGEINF

[22] = target: T5, KLF6 reprogrammed with array CDKN1C_172 (synthetic construct, UniProt Q99612 1-199); experiment: Zn; HEK293T, RT-qPCR 3 days after transfection
T5 chain: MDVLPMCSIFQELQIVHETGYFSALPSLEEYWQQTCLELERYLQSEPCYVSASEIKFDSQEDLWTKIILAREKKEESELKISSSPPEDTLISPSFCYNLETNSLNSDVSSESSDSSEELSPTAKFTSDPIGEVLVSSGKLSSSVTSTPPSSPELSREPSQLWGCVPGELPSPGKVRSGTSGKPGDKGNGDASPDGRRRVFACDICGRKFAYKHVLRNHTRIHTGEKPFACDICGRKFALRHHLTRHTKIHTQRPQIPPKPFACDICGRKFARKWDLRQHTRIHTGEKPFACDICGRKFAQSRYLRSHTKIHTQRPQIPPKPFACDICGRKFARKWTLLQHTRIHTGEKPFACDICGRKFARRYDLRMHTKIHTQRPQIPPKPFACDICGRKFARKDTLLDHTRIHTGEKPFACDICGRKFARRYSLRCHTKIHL

Chain of ZIM3 reprogrammed with array DPH1_151 (Q96PE6 other isoform, or with tags, fused parts or gaps): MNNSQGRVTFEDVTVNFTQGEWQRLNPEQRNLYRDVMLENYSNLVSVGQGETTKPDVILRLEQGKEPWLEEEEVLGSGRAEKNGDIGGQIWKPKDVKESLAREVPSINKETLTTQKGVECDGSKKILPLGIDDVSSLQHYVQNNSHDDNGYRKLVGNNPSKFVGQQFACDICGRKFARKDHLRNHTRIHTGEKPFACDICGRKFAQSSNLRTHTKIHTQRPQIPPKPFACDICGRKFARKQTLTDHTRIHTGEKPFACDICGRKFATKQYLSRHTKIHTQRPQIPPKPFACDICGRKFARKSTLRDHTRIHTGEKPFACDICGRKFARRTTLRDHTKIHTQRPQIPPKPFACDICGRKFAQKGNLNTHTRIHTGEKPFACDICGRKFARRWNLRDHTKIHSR
Chain of ZIM3 reprogrammed with array DPH1_75 (Q96PE6 other isoform, or with tags, fused parts or gaps): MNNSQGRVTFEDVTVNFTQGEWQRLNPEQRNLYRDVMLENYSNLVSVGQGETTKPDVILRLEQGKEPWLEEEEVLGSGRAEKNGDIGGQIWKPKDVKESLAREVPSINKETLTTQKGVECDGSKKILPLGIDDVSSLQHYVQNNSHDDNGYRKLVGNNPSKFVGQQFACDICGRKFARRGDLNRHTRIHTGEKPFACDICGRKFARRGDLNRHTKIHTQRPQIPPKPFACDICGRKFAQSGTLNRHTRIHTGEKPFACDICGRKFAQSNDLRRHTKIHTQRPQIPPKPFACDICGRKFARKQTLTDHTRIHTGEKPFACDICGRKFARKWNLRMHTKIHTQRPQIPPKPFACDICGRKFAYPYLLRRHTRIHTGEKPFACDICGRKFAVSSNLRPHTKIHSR

B1: DPH1_151 (dsDNA)
DNA 1: GAGAAAGGCGCCGCCGCCGTTAAAGGGG
DNA 2: CCCCTTTAACGGCGGCGGCGCCTTTCTC
binding signal [1]: ~0.7 relative expression (lower = more activity, repressor)

B2: DPH1_75 (dsDNA)
DNA 1: GAGGGCGCAGCGTTCCAGCACCCACCTC
DNA 2: GAGGTGGGTGCTGGAACGCTGCGCCCTC
binding signal [2]: ~0.62 relative expression (lower = more activity, repressor)

B3: CDKN1C_102 (dsDNA)
DNA 1: CGCCCCCGGTGGGTGTGCGCGCGGCCAA
DNA 2: TTGGCCGCGCGCACACCCACCGGGGGCG
binding signal [3]: ~2.5 relative expression (higher = more activity)

B4: CDKN1C_224 (dsDNA)
DNA 1: GCTAATCGCGGCCGGGCCCGCGCGCACG
DNA 2: CGTGCGCGCGGGCCCGGCCGCGATTAGC
binding signal [4]: ~2.5 relative expression (higher = more activity)

B5: DPH1_51 (dsDNA)
DNA 1: ACCTCTGCCAGGGCCGTCTCGGCCGCCC
DNA 2: GGGCGGCCGAGACGGCCCTGGCAGAGGT
binding signal [5]: ~0.61 relative expression (lower = more activity, repressor)

B6: DPH1_225 (dsDNA)
DNA 1: TACCCCTGGGCTCCGGCTGACAGCGACC
DNA 2: GGTCGCTGTCAGCCGGAGCCCAGGGGTA
binding signal [6]: ~0.62 relative expression (lower = more activity, repressor)

B7: DPH1_201 (dsDNA)
DNA 1: ACCCCGAGCTGGTGACAGCGGCCCAAGG
DNA 2: CCTTGGGCCGCTGTCACCAGCTCGGGGT
binding signal [7]: ~0.43 relative expression (lower = more activity, repressor)

B8: eGFP site 1 (8 fingers) (dsDNA)
DNA 1: TGTTCACCGGGGTGGTGCCCATCCTGGTCGAGCT
DNA 2: AGCTCGACCAGGATGGGCACCACCCCGGTGAACA
binding signal [8]: ~35 % GFP-negative cells (higher = more activity) | binding signal [9]: ~53 % GFP-negative cells (higher = more activity)

B9: DPH1_126 (dsDNA)
DNA 1: GGGGTTGGTCCTGTCCCTAACTTGGGGG
DNA 2: CCCCCAAGTTAGGGACAGGACCAACCCC
binding signal [10]: ~0.14 relative expression (lower = more activity, repressor)

B10: CDKN1C_125 (dsDNA)
DNA 1: GCCAATGGGCGGTGCGCGGGGGCCGGGC
DNA 2: GCCCGGCCCCCGCGCACCGCCCATTGGC
binding signal [11]: ~43 relative expression (higher = more activity) | binding signal [12]: ~16.5 relative expression (higher = more activity)

B11: CDKN1C_76 (dsDNA)
DNA 1: GCGCGCCCCGGCCGCGCGCCCCGCCCCG
DNA 2: CGGGGCGGGGCGCGCGGCCGGGGCGCGC
binding signal [13]: ~2 relative expression (higher = more activity)

B12: DPH1_99 (dsDNA)
DNA 1: GCCCCGCCCCGAGATGCGAGGTCTGGAG
DNA 2: CTCCAGACCTCGCATCTCGGGGCGGGGC
binding signal [14]: ~0.68 relative expression (lower = more activity, repressor)

B13: tetO (dsDNA)
DNA 1: TCTCCCTATCAGTGATAGAGAC
DNA 2: GTCTCTATCACTGATAGGGAGA
binding signal [15]: ~0.23 normalised eGFP fluorescence (lower = more activity, repressor) | binding signal [16]: ~2500 mean GFP fluorescence (higher = more activity) | binding signal [17]: ~41000 mean GFP fluorescence (higher = more activity)

B14: DPH1_24 (dsDNA)
DNA 1: CTGCTCCGCTGCCCCGGATACGACCAGC
DNA 2: GCTGGTCGTATCCGGGGCAGCGGAGCAG
binding signal [18]: ~0.27 relative expression (lower = more activity, repressor)

B15: CDKN1C_150 (dsDNA)
DNA 1: GGCCGCGGCGGGGCGGGGCAGCGGGGCG
DNA 2: CGCCCCGCTGCCCCGCCCCGCCGCGGCC
binding signal [19]: ~9 relative expression (higher = more activity)

B16: eGFP site 20 (8 fingers) (dsDNA)
DNA 1: GAAGGGCATCGACTTCAAGGAGGACGGCAACATC
DNA 2: GATGTTGCCGTCCTCCTTGAAGTCGATGCCCTTC
binding signal [20]: ~17 % GFP-negative cells (higher = more activity) | binding signal [21]: ~69 % GFP-negative cells (higher = more activity)

B17: CDKN1C_172 (dsDNA)
DNA 1: GGGGCGGCCGCCAATCGCCGTGGTGTTG
DNA 2: CAACACCACGGCGATTGGCGGCCGCCCC
binding signal [22]: ~3.3 relative expression (higher = more activity)
